The series concerns PleI restriction endonuclease (Pseudomonas lemoignei). Nature of the series: cleavage_in_vitro. The note with it: approximate yield of recombinant PleI; five of six clones active; recognition site not given.

For the substance “DNA substrate with PleI sites (sequence not stated)”, the activity (units/gram of cells) was determined as 100000.

For the origin of these results see patent US6391608.
